Test results as given in patent US20200109194A1 (BLUEFIN BIOMEDICINE, published 2020).

T1: human TMEFF1 extracellular domain recombinant protein (plasmid BBP377, S40-V330, C-terminal 8xHis) (human, UniProt Q8IYR6 40-330)
T1 construct: Secreted from CHO cells with a non-native signal peptide (not part of the mature protein); also called hTMEFF1 ECD; hTMEFF1-ECD
T1 sequence: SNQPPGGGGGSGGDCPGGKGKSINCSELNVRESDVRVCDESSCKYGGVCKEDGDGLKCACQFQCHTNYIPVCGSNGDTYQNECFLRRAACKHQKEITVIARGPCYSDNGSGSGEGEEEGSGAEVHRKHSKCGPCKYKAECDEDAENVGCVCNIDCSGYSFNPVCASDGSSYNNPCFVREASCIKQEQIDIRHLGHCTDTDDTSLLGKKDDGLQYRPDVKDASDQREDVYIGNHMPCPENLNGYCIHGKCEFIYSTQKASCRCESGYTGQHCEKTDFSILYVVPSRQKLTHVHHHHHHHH

T2: endogenous human TMEFF1 on cancer cell lines (H69, HCC1187, PA-1, H526, H1048) (human, UniProt Q8IYR6 40-380)
T2 sequence: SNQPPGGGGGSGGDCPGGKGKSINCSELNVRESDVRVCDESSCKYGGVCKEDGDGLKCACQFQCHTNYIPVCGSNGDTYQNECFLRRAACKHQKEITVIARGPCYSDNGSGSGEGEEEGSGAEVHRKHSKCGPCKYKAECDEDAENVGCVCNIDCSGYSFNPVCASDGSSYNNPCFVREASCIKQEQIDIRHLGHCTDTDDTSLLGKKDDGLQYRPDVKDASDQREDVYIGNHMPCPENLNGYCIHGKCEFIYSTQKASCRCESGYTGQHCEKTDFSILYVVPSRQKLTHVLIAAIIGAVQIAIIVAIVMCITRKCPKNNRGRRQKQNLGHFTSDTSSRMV


Legend:
[1] = biological target: T1, human TMEFF1 extracellular domain …; assay: BLI (Octet Red), antibody on Protein A biosensor, recombinant hTMEFF1 ECD as analyte
Description: (§1) The affinity of antibodies to various recombinant TMEFF1 protein was determined on an Octet Red™ instrument. After loading reagents into a 96-well plate, the Octet Red™ with Protein A-conjugated biosensors was programmed as follows: 30 seconds for baseline #1; 120 seconds to immobilize the antibody; 30 seconds for baseline #2; 300 seconds for association of antibody to recombinant TMEFF1; and 300-600 seconds for dissociation of recombinant TMEFF1 from the antibody.
Affinity of thirteen antibodies was calculated using hTMEFF1 ECD recombinant protein by Octet™.

[2] = biological target: T3, Macaca fascicularis TMEFF1 extracellular domain recombinant protein (plasmid BBP480, S40-V330, C-terminal … (Macaca fascicularis)); assay: BLI (Octet Red), antibody on Protein A biosensor, recombinant cyTMEFF1 ECD as analyte
T3 construct: range 40-330; also called cyTMEFF1 ECD; monkey TMEFF1 ectodomain
Description: as §1
Affinity of 7 antibodies was calculated using cyTMEFF1 ECD recombinant protein by Octet™.

[3] = biological target: T2, endogenous human TMEFF1 on cancer cell …; assay: cell-based or functional assay

Binder | Kd [1] | Kd [2] | IC50 of growth of H526 cells (CellTiter Glo, 5 days) [3] | IC50 of growth of H1048 cells (CellTiter Glo, 5 days) [3]
M1F1 (antibody, human IgG1, V domains shown) VH: QVQLQESGPGLVKPSETLSLTCAVSGYSISSGYFWGWIRQPPGKKLEWIGSIYHSGSTYYNPSLKSRVTMSVDTSKNQFSLKLSSVTAADTAVYYCAREGDCSGGICYWYFDLWGRGTLVTVSS VL: EIVMTQSPATLSVSPGERATLSCRASQSVSSNLAWYQQKPGQAPRLLIYGASTRATGIPARFSGSGSGTEVTLTISSLQSEDFAVYYCQQYNKWPLTFGGGTKVEIK | 19 nM | 27 nM |  | 
M10 (antibody, human IgG1, V domains shown) VH: QVQLVESGGGGVQPGRSLRLSCAASGFTFSRYGMHWVRQAPGKGLEWVAVIWYDGSDEYYADSVKGRFTISRDNSKNTLYLQMNSLRAEDTAVYYCARETMGRGIIISYFDYWGQGTPVTVSS VL: not shown | 9 nM | 7 nM |  | 
34B7 (antibody, human IgG1, V domains shown) VH: QVQLVESGGGVVQPGRSLRLSCAASGFTFTSYGMHWVRQAPGKGLEWVAVVWYEGNSKFYIDSVKGRFIISRDNSKNTLYLQMNSLRAEDTAVYYCARAYCGDDCYPFDYWGQGTLVTVSS VL: DIQMTQSPSSLSASVGDRVTITCRASQGISNYLAWYQQKPGKVPKLLIYAASTLQSGVPSRFSGSGSGTDFTLTISSLQPEDVATYYCQKYNSAPWTFGQGTKLEIK | 20 nM | 22 nM |  | 
36H6 (antibody, human IgG1, V domains shown) VH: QVQLVESGGGVVQPGRSLRLSCAASGFTFSDYGMHWVRQAPGKGLEWVAVIWYEGGNKYYTDSVKGRFTISRDNSKNTLYLQMNSLRAEDTAVYYCARILLWFGESYGMDVWGQGTTVTVSS VL: DIQMTQSPSSLSASVGDRVTITCRASQGISNYLAWYQQKPGKVPKLLIYAASTLQSGVPSRFSGSGSGTDFTLTISSLQPEDVATYYCQKYNNAPWTFGQGTKVEIK | 51 nM | 96 nM |  | 
31B7 (antibody, human IgG1, V domains shown) VH: QVQLVESGGGVVQPGRSLRLSCAASGFTFSSYGMHWVRQAPGKGLEWVAVIWYNGINKYYADSVKGRFTISRDASKNTLYLQMNSLRAEDTAVYYCAREGLLWFGGMDVWGQGTTVTVSS VL: EIVLTQSPLSLPVTPGEPASISCRSSQSLLHSNGYNYLHWYLQKPGQSPQLLIYLGSNRASGVPDRFSGSRSGTDFTLKIIRVEAEDVGVYYCMQALQTPYTFGQGTKLEIK | 43 nM | 101 nM |  | 
30C10-PBD (antibody, human IgG1, V domains shown, MA-PEG8-VA-PAB-SG3199 (PBD) on TCEP-reduced hinge region thiols, sites not stated; DAR 1.7) VH: QVQLVESGGGVVQPGRSLRLSCAASGFTFSSYGMHWVRQAPGKGLEWVAVIWYDGSDKYYADSVKGRFTISRDNSKKTLYLQMNSLRAEDTAVYFCARETIFRGLTITFFDHWGQGTLVTVSS VL: not shown |  |  | 4.27 ng/mL | 0.53 ng/mL
30C10 (antibody, human IgG1, V domains shown) VH: QVQLVESGGGVVQPGRSLRLSCAASGFTFSSYGMHWVRQAPGKGLEWVAVIWYDGSDKYYADSVKGRFTISRDNSKKTLYLQMNSLRAEDTAVYFCARETIFRGLTITFFDHWGQGTLVTVSS VL: not shown | 4 nM | 7 nM |  | 
